One experiment concerns the target fbw1b_human FBXW11 (UniProt Q9UKB1).
The target in a further experiment is fbw1a_human BTRC (UniProt Q9Y297).
Sequence of fbw1a_human BTRC (Q9Y297 whole entry): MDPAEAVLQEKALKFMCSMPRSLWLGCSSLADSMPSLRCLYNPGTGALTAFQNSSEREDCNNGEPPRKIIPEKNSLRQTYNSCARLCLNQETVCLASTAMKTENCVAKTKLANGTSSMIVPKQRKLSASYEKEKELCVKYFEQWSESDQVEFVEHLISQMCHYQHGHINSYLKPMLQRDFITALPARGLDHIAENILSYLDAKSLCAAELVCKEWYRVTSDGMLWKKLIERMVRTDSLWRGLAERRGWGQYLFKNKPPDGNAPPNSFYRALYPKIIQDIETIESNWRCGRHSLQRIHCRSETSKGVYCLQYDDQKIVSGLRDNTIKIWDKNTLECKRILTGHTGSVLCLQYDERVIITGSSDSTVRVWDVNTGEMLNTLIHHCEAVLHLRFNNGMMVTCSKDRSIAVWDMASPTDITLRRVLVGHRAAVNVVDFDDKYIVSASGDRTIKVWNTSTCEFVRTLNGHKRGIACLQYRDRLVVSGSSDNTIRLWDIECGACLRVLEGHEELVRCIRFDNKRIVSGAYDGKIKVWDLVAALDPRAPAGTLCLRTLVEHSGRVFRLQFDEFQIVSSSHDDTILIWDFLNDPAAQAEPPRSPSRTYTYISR

Sequence of fbw1b_human FBXW11 (Q9UKB1 whole entry): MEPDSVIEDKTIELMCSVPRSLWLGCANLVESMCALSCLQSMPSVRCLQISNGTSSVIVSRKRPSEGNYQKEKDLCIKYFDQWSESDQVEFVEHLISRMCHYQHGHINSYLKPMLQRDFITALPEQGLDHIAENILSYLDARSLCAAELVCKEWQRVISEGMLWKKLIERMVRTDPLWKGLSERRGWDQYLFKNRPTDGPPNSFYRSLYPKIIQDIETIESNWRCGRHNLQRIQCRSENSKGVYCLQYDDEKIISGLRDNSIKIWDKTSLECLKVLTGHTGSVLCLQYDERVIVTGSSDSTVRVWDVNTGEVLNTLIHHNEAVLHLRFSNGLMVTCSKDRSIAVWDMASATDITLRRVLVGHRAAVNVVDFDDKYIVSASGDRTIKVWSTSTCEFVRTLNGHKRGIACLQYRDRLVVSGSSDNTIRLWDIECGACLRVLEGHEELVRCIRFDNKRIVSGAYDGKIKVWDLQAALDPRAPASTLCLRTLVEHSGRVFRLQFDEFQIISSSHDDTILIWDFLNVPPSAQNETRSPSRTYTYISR

Take “Wee1-like protein kinase (Homo sapiens), P30291 D52A;S123A”: in the experiment with fbw1b_human FBXW11, the “effect of a mutation on the interaction” value is “decreasing interaction”. Turning to “Wee1-like protein kinase (Homo sapiens), P30291 E116A;E117A”, the “effect of a mutation on the interaction” value with fbw1a_human BTRC is listed as “decreasing interaction”. Turning to “Wee1-like protein kinase (Homo sapiens), P30291 S53A;S123A”, the “effect of a mutation on the interaction” value in the experiment with fbw1b_human FBXW11 was “decreasing interaction”.

“Wee1-like protein kinase (Homo sapiens), P30291 S121A”: in the experiment with fbw1a_human BTRC, the “effect of a mutation on the interaction” value is given as “decreasing interaction”. On to “Wee1-like protein kinase (Homo sapiens), P30291 S123A”, for which, in the experiment with fbw1a_human BTRC, the “effect of a mutation on the interaction” value is recorded as “decreasing interaction”.

Source of the values: IntAct's records for PubMed 15070733.
